Results reported in paper PMC3989768, “Activation of the γ-Tubulin Complex by the Mto1/2 Complex” (Current Biology, 2014).

Target: the molecule itself
Test: glycerol density-gradient centrifugation; material partially purified by Mto2-SZZ (IgG beads, TEV cleavage) from mto1[9A1-bonsai]-GFP or mto1Δ lysates, before and after 10-fold concentration; isokinetic glycerol gradient, 2.5 hr or 45 min; quantitative western blotting

B1: Mto2-S (the TEV protease cleavage product of Mto2-SZZ) (natural protein, Schizosaccharomyces pombe, UniProt Q9USP7 1-397, looked up)
chain: MSEHNYQSDREVAEDPFLNYEASANQLSSNSRESTPRGSPWRAGMRSASLMTEPLEDSMYSDNNYLDNGVSFTKDENPLYSPSWPSLADANVNSMKSNNAIQEHKAAKFVSEKSLEKVSTADNNLVLQELENLRERLNQVELQLSERPSSYLGYHNNLSPYRSPNSYPSLLPSTHSPHSPAPLSTMQTALMRLRTYHPSPIILKPVEQAVNHAITLVNTSPSSVVDALCRSLAELCLGLVQEAIDASILSQQESSNSLDLVRHTPPLNYTSSVDSSPQRMASDSYGRPSLHLNDPFPSVDLQSNELSHHNVRTTLFSDDSRFHSKIHTHSTPPSQMYSAASHFRYRSDPSTRHVSNSTNKSSLHPSPTSLRVAHPIIPQRASPASQSFPSLQDTPSP
notes: Mto2, Schizosaccharomyces pombe; source: S. pombe, partially purified (immunoglobulin G beads, TEV protease cleavage), enriched 3,400-fold
  binding result: binds
